Entries after “also recorded” stand apart in the source; their conditions may differ. Where no end group is shown, it is not given here.
Experiments:
CED-4/CED-9 complex = target: T1, CED-4/CED-9 complex (Caenorhabditis elegans, UniProt P41958); assay: CED-4 displacement assay (pre-assembled CED-4/CED-9 complex on glutathione resin challenged with EGL-1 fragments); type: biochemical, C. elegans; conditions: in vitro, remaining complex visualized on SDS polyacrylamide gel
T1 sequence (P41958 1-251 limits assumed): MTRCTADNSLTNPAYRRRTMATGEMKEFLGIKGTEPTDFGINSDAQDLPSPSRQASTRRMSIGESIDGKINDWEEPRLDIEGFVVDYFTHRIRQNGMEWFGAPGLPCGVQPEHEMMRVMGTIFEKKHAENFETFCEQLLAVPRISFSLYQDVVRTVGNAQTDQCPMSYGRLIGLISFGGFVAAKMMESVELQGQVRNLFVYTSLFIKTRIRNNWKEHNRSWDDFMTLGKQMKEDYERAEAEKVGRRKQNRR
Source text: EGL-1 induces apoptosis by displacing CED-4 from the CED-4/CED-9 complex. To recapitulate this finding in vitro, a CED-4 displacement assay was designed in which pre-assembled CED-4/CED-9 complex was immobilized on glutathione resin and was then challenged with various EGL-1 fragments. After extensive washing, the remaining CED-4/CED-9 complex was eluted from the resin and visualized on SDS polyacrylamide gel. […] In contrast, most missense mutations at the EGL-1/CED-9 interface weakened the ability of EGL-1 to displace CED-4 from the CED-4/CED-9 complex. […] The in vitro studies are in complete agreement with the structural observation.

[1] = target: T2, CED-9 protein (residues 1-251) (Caenorhabditis elegans, UniProt P41958); assay: GST-EGL-1 fragment/mutant interaction with CED-9 (GST-mediated pull-down assay); type: binding, C. elegans; conditions: GST-EGL-1 fragments or mutants, in vitro
T2 construct: made in house
T2 sequence (P41958 1-251): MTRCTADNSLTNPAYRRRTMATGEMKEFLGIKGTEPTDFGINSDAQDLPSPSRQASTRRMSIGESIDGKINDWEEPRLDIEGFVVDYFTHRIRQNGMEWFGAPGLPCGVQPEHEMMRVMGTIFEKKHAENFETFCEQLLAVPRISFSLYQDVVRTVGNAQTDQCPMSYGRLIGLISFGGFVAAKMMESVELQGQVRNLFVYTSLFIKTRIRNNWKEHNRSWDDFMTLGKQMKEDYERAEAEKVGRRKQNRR
Procedure: This example describes the characterization of EGL-1/CED-9 interactions. To determine the mechanism of CED-9 recognition by EGL-1, the EGL-1/CED-9 interaction was characterized. Various fragments of the GST-EGL-1 protein were evaluated for their abilities to interact with the CED-9 protein (residues 1-251).
To further characterize EGL-1/CED-9 interactions, a number of missense mutations were introduced into EGL-1 and the ability of the resulting EGL-1 mutants to interact with CED-9 was determined.
This example describes the biochemical and functional analysis of EGL-1/CED-9 interactions. To corroborate the structural analysis, mutations on the interface residues of EGL-1 were examined for their potential to weaken or disrupt its binding to CED-9. Various mutant EGL-1 fragments were purified as fusion proteins with glutathione S-transferase (GST) and their interactions with CED-9 were investigated using a GST-mediated pull-down assay.

[2] = test system: ced-1 (e1735); egl-1 (n1084 n3082) animals; assay: in vivo cell killing: cell corpses in four-fold transgenic embryos after heat-shock expression of EGL-1 fragments; design: species or system C. elegans; conditions: anterior head region of four-fold transgenic embryos; heat-shock promoter expression
Procedure: In this example, the ability of EGL-1 mutants to disrupt the CED-4/CED-9 complex was tested. […] To examine this scenario, constructs were injected into ced-1 (e1735); egl-1 (n1084 n3082) animals that direct expression of various EGL-1 fragments under the control of the C. elegans heat-shock promoters. Cell corpses were scored in the anterior head region of four-fold transgenic embryos after the heat-shock treatment.

CED-4 = target: T3, CED-4 (Caenorhabditis elegans, UniProt P30429); assay: interaction of CED-9 surface mutants with CED-4; type: binding, C. elegans; conditions: purified CED-9 mutant proteins
T3 sequence (P30429 1-549): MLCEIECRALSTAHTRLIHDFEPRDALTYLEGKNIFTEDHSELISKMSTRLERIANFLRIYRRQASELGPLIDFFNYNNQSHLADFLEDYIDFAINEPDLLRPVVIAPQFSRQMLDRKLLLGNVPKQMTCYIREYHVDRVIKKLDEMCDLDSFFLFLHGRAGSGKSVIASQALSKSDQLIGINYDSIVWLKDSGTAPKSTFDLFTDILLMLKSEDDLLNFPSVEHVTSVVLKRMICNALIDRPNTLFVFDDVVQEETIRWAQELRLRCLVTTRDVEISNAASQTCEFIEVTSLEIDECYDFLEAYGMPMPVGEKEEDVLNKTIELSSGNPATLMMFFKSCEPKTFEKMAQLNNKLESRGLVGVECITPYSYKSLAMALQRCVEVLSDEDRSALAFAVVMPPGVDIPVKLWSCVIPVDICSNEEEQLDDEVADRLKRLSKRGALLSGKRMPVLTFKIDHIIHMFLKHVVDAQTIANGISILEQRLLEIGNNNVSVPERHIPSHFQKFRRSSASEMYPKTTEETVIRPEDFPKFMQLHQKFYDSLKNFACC
Procedure: This example describes the biochemical analysis of CED-4/CED-9 interactions. To further define the molecular mechanisms by which EGL-1 induces the release of CED-4 from CED-9-mediated sequestration, the identify of surface residues in CED-9 that are important for binding to CED-4 was analyzed. It was hypothesized that for molecular recognition to occur, at least some of the CED-9 residues that are important for binding to CED-4 must be solvent-exposed prior to binding. Therefore, the structure of CED-9 in isolation was examined and a total of 44 amino acids were identified, each with at least 30% of its surface area exposed to solvent. These 44 amino acids were grouped based on primary sequences and 20 CED-9 mutant clones were generated, each containing 1-5 missense mutations that together covering all 44 solvent-exposed residues. All 20 CED-9 proteins were cloned into an expression vector and over-expressed in E. coli and purified to homogeneity.
Next, the abilities of these CED-9 mutants to interact with CED-4 was examined. […] This surface patch may constitute the primary CED-4-binding motif. None of the other 16 mutations, which cover the entirety of the CED-9 surface, affected the CED-4/CED-9.

[3] = listed as EGL-1 double mutant (G55E/F65A)

Molecule: L58A: EGL-1 mutant, Leu58 substituted by Ala (SEISSIGYEIGSKAAAMCDDFDAQMMSYSAHASDRSLFHRLLD; not fully specified)
- ability to displace CED-4 from the CED-4/CED-9 complex (CED-4/CED-9 complex): significantly reduced ability
- interaction with (binding to) CED-9 [1]: did not significantly affect its interaction with CED-9; also recorded: retaining their ability to bind to CED-9

Molecule: EGL-1 C-terminal fragment (residues 46-87): EGL-1 C-terminal fragment residues 46-87 expressed in vivo (DSSQFADDSGFFDDSEISSIGYEIGSKLAAMCDDFDAQMMSY; UniProt O61667 46-87, looked up, fragment)
- cell killing (cell corpses induced) [2]: about half the number of cell corpses as the full-length EGL-1

Molecule: C-terminal half of EGL-1 (amino acids 45-87): C-terminal half of EGL-1, residues 45-87 (SEISSIGYEIGSKLAAMCDDFDAQMMSYSAHASDRSLFHRLLD)
- ability to displace CED-4 from the CED-4/CED-9 complex (CED-4/CED-9 complex): completely displaced CED-4
- interaction with (binding to) CED-9 [1]: necessary and sufficient; also recorded: formed a stable complex
- cell killing (cell corpses induced) [2]: necessary and sufficient

Molecule: C-terminal half of EGL-1 (residues 45-91): C-terminal half of EGL-1, residues 45-91 (EDSSQFADDSGFFDDSEISSIGYEIGSKLAAMCDDFDAQMMSYSAHA; UniProt O61667 45-91, looked up, fragment)
- interaction with (binding to) CED-9 [1]: formed a stable complex

Molecule: mut4: EGL-1 quadruple mutant G55E/L58A/F65A/M69A (SEISSIGYEIESKAAAMCDDADAQAMSYSAHASDRSLFHRLLD; also: fused to a dimerising Fc or GST (left off))
- ability to displace CED-4 from the CED-4/CED-9 complex (CED-4/CED-9 complex): completely failed to disrupt the CED-4/CED-9 complex
- interaction with (binding to) CED-9 [1]: failed to bind to CED-9

Molecule: mut2: EGL-1 double mutant G55E/F65A (SEISSIGYEIESKLAAMCDDADAQMMSYSAHASDRSLFHRLLD; not fully specified)
- ability to displace CED-4 from the CED-4/CED-9 complex (CED-4/CED-9 complex): completely failed to disrupt the CED-4/CED-9 complex
- ability to displace CED-4 from the CED-4/CED-9 complex (CED-4/CED-9 complex; [3]): failed to bind to CED-9 or to displace CED-4
- interaction with (binding to) CED-9 [1]: failed to bind to CED-9
- interaction with (binding to) CED-9 [1, 3]: failed to bind to CED-9
- interaction with (binding to) CED-9 ([1]; listed as G55E and F65A): completely abolished its interaction with CED-9
- cell killing (cell corpses induced) [2]: induced no cell killing

Molecule: N-terminal half (residues 1-45) of EGL-1: N-terminal half of EGL-1, residues 1-45 (MSNVFDVQSSVFYNEKNMFYSSSQDFSSCEDSSQFADDSGFFDDS; not fully specified)
- interaction with (binding to) CED-9 [1]: did not show detectable binding
- cell killing (cell corpses induced) [2]: did not induce cell death

B1: F146N: CED-9 mutant F146N (protein)
chain: MTRCTADNSLTNPAYRRRTMATGEMKEFLGIKGTEPTDFGINSDAQDLPSPSRQASTRRMSIGESIDGKINDWEEPRLDIEGFVVDYFTHRIRQNGMEWFGAPGLPCGVQPEHEMMRVMGTIFEKKHAENFETFCEQLLAVPRISNSLYQDVVRTVGNAQTDQCPMSYGRLIGLISFGGFVAAKMMESVELQGQVRNLFVYTSLFIKTRIRNNWKEHNRSWDDFMTLGKQMKEDYERAEAEKVGRRKQNRR
- interaction with CED-4 (CED-4): significantly weakened interactions with CED-4

B2: N158A/A159G/Q160A: CED-9 mutant N158A/A159G/Q160A (protein)
chain: MTRCTADNSLTNPAYRRRTMATGEMKEFLGIKGTEPTDFGINSDAQDLPSPSRQASTRRMSIGESIDGKINDWEEPRLDIEGFVVDYFTHRIRQNGMEWFGAPGLPCGVQPEHEMMRVMGTIFEKKHAENFETFCEQLLAVPRISFSLYQDVVRTVGAGATDQCPMSYGRLIGLISFGGFVAAKMMESVELQGQVRNLFVYTSLFIKTRIRNNWKEHNRSWDDFMTLGKQMKEDYERAEAEKVGRRKQNRR
- interaction with CED-4 (CED-4): significantly weakened interactions with CED-4

B3: R211E/N212G: CED-9 mutant R211E/N212G (protein)
chain: MTRCTADNSLTNPAYRRRTMATGEMKEFLGIKGTEPTDFGINSDAQDLPSPSRQASTRRMSIGESIDGKINDWEEPRLDIEGFVVDYFTHRIRQNGMEWFGAPGLPCGVQPEHEMMRVMGTIFEKKHAENFETFCEQLLAVPRISFSLYQDVVRTVGNAQTDQCPMSYGRLIGLISFGGFVAAKMMESVELQGQVRNLFVYTSLFIKTRIEGNWKEHNRSWDDFMTLGKQMKEDYERAEAEKVGRRKQNRR
- interaction with CED-4 (CED-4): significantly weakened interactions with CED-4

B4: G55E: EGL-1 mutant, Gly55 substituted by glutamate (protein, UniProt O61667 1-106, looked up, variant G55E)
Programmed cell death …: MLMLTFASTSSDLLPMSNVFDVQSSVFYNEKNMFYSSSQDFSSCEDSSQFADDSEFFDDSEISSIGYEIGSKLAAMCDDFDAQMMSYSAHASDRSLFHRLLDFFAF
- ability to displace CED-4 from the CED-4/CED-9 complex (CED-4/CED-9 complex): significantly reduced ability
- ability to displace CED-4 from the CED-4/CED-9 complex (CED-4/CED-9 complex; listed as EGL-1 (G55E)): decreased ability to disrupt the CED-4/CED-9 complex
- interaction with (binding to) CED-9 [1]: not sufficient to abolish interaction with CED-9; also recorded: retaining their ability to bind to CED-9
- interaction with (binding to) CED-9 ([1]; listed as EGL-1 (G55E)): retained its ability to interact with CED-9
- cell killing (cell corpses induced) [2]: significantly lower level than that of the wild-type EGL-1 protein

B5: wild-type EGL-1 protein (residues 1-87): wild-type EGL-1 residues 1-87, lacking the four C-terminal hydrophobic residues (protein)
chain: MSNVFDVQSSVFYNEKNMFYSSSQDFSSCEDSSQFADDSGFFDDSEISSIGYEIGSKLAAMCDDFDAQMMSYSAHASDRSLFHRLLD
- ability to displace CED-4 from the CED-4/CED-9 complex (CED-4/CED-9 complex): completely displaced CED-4

Source: patent US20080138847A1, “Bcl-2 family member and BH-3 only proteins for use in development of peptidomimetics” (priority 2004, published 2008)
